# Laboratory results published in patent publication US20120213804A1 (Pfizer, published 2012).
# Read-outs that look alike come from different tables or passages of the source.
# Columns and labels:
# Fc-CD22 [1] = target: Fc-CD22 (UniProt P20273); experiment: BIACORE, Fc-CD22 on CM5 chip, no G5/44
# Fc-CD22 [2] = target: Fc-CD22 (UniProt P20273); experiment: BIACORE, Fc-CD22 on CM5 chip; competitor G5/44 pre-bound
# CD22mFc [3] = target: T1, CD22mFc (UniProt P20273 20-687, limits assumed); experiment: Biacore 2000; CD22mFc captured via immobilized anti-mouse Fc, antibody in the soluble phase; column head '~KD nM'
# T1 construct: also called CD22-mFc constructs; not shown: mouse Fc (captured by anti-mouse Fc)
# Protocol: (§1) All binding measurements were performed in the BIACORE™ 2000 instrument (Pharmacia Biosensor AB, Uppsala, Sweden). The assay was performed by capture of CD22mFc via the immobilized anti-mouse Fc. The antibody was in the soluble phase. Samples, standard, and controls (50 μl) were injected over immobilized anti-mouse Fc followed by antibody in the soluble phase. After each cycle, the surface was regenerated with 50 μl of 40 mM HCl at 30 μl/min. The kinetic analysis was performed using the BIAevaluation 3.1 software (Pharmacia).
# CD22mFc [4] = target: T1, CD22mFc; experiment: BIACORE 2000, CD22mFc captured via anti-mouse Fc
# Protocol: as §1
# [5] = target: T2, CD33 on CD22- CD33+ HL-60 leukemia cells (human, UniProt P20138 18-364); experiment: flow cytometry
# T2 construct: whole, on cells
# Excerpt: Purified human polyclonal IgG1 and IgG4 were also used as negative controls.
# [6] = target: T3, human CD22 on the surface of B cells (Ramos, RL, Daudi, Raji lymphoma cells; B cell lymphoma tissue) (human, UniProt P20273 20-847); experiment: cell-based or functional assay
# CD22mFc [7] = target: T1, CD22mFc; experiment: SPR (BIACORE 2000), CD22mFc on CM5 chip, global 1:1 Langmuir fit with mass transfer
# Protocol: (§2) Biosensor analyses were carried out using a BIACORE™ 2000 (BIAcore AB, Uppsala, Sweden). CD22mFc was covalently immobilized on the N-hydroxysuccinimide-activated carboxymethyl dextran-coated biosensor chip (CM5) using a standard amine-coupling chemistry at a protein density of approximately 2000 resonance units. […] After the binding phase, dissociation of the bound antibody was monitored by washing the chip with the HBS buffer over a 15 minute period. The antigenic surface was regenerated by washing the Biosensor chip with 15 μl of the regeneration buffer (10 mM NaOH and 200 mM NaCl) for 30 seconds, followed by a stabilization time of 2 minutes before the next cycle. Kinetic constants were calculated by nonlinear least square regression analysis using a 1:1 Langmuir binding curve fitting model and BIAevaluation program (version 3.0, BIAcore).
# CD22mFc [8] = target: T1, CD22mFc; experiment: SPR (BIACORE 2000), CD22mFc immobilized on CM5 chip
# Protocol: as §2
# [9] = target: T3, human CD22 on the surface of B cells …; experiment: cell-based or functional assay; remark: listed apart in the source
# [10] = target: T3, human CD22 on the surface of B cells …; experiment: cell-based or functional assay; remark: listed apart in the source
# T2 sequence (P20138 18-364): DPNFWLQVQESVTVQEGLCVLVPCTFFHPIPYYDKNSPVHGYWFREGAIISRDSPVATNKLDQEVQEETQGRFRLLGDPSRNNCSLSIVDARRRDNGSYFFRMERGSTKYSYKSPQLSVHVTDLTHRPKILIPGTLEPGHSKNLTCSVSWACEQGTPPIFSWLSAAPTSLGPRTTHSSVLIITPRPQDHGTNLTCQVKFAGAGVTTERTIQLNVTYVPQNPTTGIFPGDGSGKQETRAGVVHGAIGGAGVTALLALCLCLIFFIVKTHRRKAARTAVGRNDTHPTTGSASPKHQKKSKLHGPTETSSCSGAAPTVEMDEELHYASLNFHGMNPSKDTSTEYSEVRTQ
molecule,measurement,setting,value
anti-CD22 antibody To 15 (Dako Corp),Binding of 2nd mAb without G544 adjusted for background (RU),Fc-CD22 [1],615 RU
same,Inhibition by G544 (%),Fc-CD22 [2],7%
same,"Response 2 with G544 (combined response, RU)",Fc-CD22 [2],1160 RU
same,Response 3 (Response 2-1) (RU),Fc-CD22 [2],487 RU
same,Response 3 adjusted for OFF rate of G544 (RU),Fc-CD22 [2],570 RU
anti-CD19 antibody BU12 (Celltech),Inhibition by G544 (%),Fc-CD22 [2],0%
same,"Response 2 with G544 (combined response, RU)",Fc-CD22 [2],603 RU
same,Response 3 (Response 2-1) (RU),Fc-CD22 [2],-83.5 RU
same,Response 3 adjusted for OFF rate of G544 (RU),Fc-CD22 [2],0 RU
"anti-CD22 antibody BLCAM, HD239 (Santa Cruz Biotech)",Binding of 2nd mAb without G544 adjusted for background (RU),Fc-CD22 [1],19.3 RU
same,Inhibition by G544 (%),Fc-CD22 [2],91%
same,"Response 2 with G544 (combined response, RU)",Fc-CD22 [2],629 RU
same,Response 3 (Response 2-1) (RU),Fc-CD22 [2],-81.8 RU
same,Response 3 adjusted for OFF rate of G544 (RU),Fc-CD22 [2],1.7 RU
anti-CD22 antibody 4 KB128 (Dako Corp),Binding of 2nd mAb without G544 adjusted for background (RU),Fc-CD22 [1],739 RU
same,Inhibition by G544 (%),Fc-CD22 [2],0%
same,"Response 2 with G544 (combined response, RU)",Fc-CD22 [2],1340 RU
same,Response 3 (Response 2-1) (RU),Fc-CD22 [2],652 RU
same,Response 3 adjusted for OFF rate of G544 (RU),Fc-CD22 [2],736 RU
"anti-CD22 antibody SHCL-1, Leu 14 (Becton Dickinson)",Binding of 2nd mAb without G544 adjusted for background (RU),Fc-CD22 [1],29.3 RU
same,Inhibition by G544 (%),Fc-CD22 [2],69%
same,"Response 2 with G544 (combined response, RU)",Fc-CD22 [2],580 RU
same,Response 3 (Response 2-1) (RU),Fc-CD22 [2],-74.5 RU
same,Response 3 adjusted for OFF rate of G544 (RU),Fc-CD22 [2],9 RU
"chimeric 5/44 variant K60R (antibody, V domains shown, Human kappa / human gamma-4 constant regions; The position is as printed) VH: EVQLQQSGTVLARPGASVKMSCKASGYRFTNYWIHWVKQRPGQGLEWIGGINPGNNYTTYRRNLKGKATLTAVTSASTAYMDLSSLTSEDSAVYYCTREGYGNYGAWFAYWGQGTLVTVSS VL: DVVVTQTPLSLPVSFGDQVSISCRSSQSLANSYGNTFLSWYLHKPGQSPQLLIYGISNRFSGVPDRFTGSGSGTDFTLKISTIKPEDLGMYYCLQGTHQPYTFGGGTKLEIKR",Kd,CD22mFc [3],~0.2 nM
"chimeric 5/44 variant N55Q (antibody, V domains shown, Human kappa / human gamma-4 constant regions; The position is as printed) VH: EVQLQQSGTVLARPGASVKMSCKASGYRFTNYWIHWVKQRPGQGLEWIGGINPGNQYTTYKRNLKGKATLTAVTSASTAYMDLSSLTSEDSAVYYCTREGYGNYGAWFAYWGQGTLVTVSS VL: DVVVTQTPLSLPVSFGDQVSISCRSSQSLANSYGNTFLSWYLHKPGQSPQLLIYGISNRFSGVPDRFTGSGSGTDFTLKISTIKPEDLGMYYCLQGTHQPYTFGGGTKLEIKR",Kd,CD22mFc [3],~0.3 nM
"chimeric 5/44 variant T57A (antibody, V domains shown, Human kappa / human gamma-4 constant regions; The position is as printed (CDR-H2, Kabat definition); also called construct T57A) VH: EVQLQQSGTVLARPGASVKMSCKASGYRFTNYWIHWVKQRPGQGLEWIGGINPGNNYATYKRNLKGKATLTAVTSASTAYMDLSSLTSEDSAVYYCTREGYGNYGAWFAYWGQGTLVTVSS VL: DVVVTQTPLSLPVSFGDQVSISCRSSQSLANSYGNTFLSWYLHKPGQSPQLLIYGISNRFSGVPDRFTGSGSGTDFTLKISTIKPEDLGMYYCLQGTHQPYTFGGGTKLEIKR",affinity improvement compared to the chimeric 5/44 (fold),CD22mFc [4],~5 fold
same,Kd,CD22mFc [3],~0.07 nM
"CMC-544 (G5/44-NAc-gamma-calicheamicin DMH AcBut conjugate), preparation not specified (antibody, human IgG4 S228P, kappa, V domains shown, NAc-gamma calicheamicin DMH AcBut conjugated to the antibody; chain and residues not stated, also called NAc-Gamma Calicheamicin DMH AcBut-G5/44 immunoconjugate) VH: EVQLVQSGAEVKKPGASVKVSCKASGYRFTNYWIHWVRQAPGQGLEWIGGINPGNNYATYRRKFQGRVTMTADTSTSTVYMELSSLRSEDTAVYYCTREGYGNYGAWFAYWGQGTLVTVSS VL: DVQVTQSPSSLSASVGDRVTITCRSSQSLANSYGNTFLSWYLHKPGKAPQLLIYGISNRFSGVPDRFSGSGSGTDFTLTISSLQPEDFATYYCLQGTHQPYTFGQGTKVEIKR",binding result,[5],no binding
same,killing of CD22+ target cells relative to the unconjugated drug,[6],≥ 10 times
same,Kd,CD22mFc [7],0.2 nM
"CMC-544 (87 µg/mg) (CMC-544 procedure) (antibody, human IgG4 S228P, kappa, V domains shown, NAc-gamma calicheamicin DMH AcBut conjugated, loading 87 µg/mg; chain and residues not stated) VH: EVQLVQSGAEVKKPGASVKVSCKASGYRFTNYWIHWVRQAPGQGLEWIGGINPGNNYATYRRKFQGRVTMTADTSTSTVYMELSSLRSEDTAVYYCTREGYGNYGAWFAYWGQGTLVTVSS VL: DVQVTQSPSSLSASVGDRVTITCRSSQSLANSYGNTFLSWYLHKPGKAPQLLIYGISNRFSGVPDRFSGSGSGTDFTLTISSLQPEDFATYYCLQGTHQPYTFGQGTKVEIKR",Ka,CD22mFc [8],6.6e+09 M⁻¹
same,Kd,CD22mFc [8],0.15 nM
same,koff,CD22mFc [8],6.9e-05 s⁻¹
same,kon,CD22mFc [8],460000 M⁻¹ s⁻¹
"CMC-544, CMA-676 process, loading 35 µg/mg (antibody, human IgG4 S228P, kappa, V domains shown, NAc-gamma calicheamicin DMH AcBut conjugated, loading 35 µg/mg; chain and residues not stated) VH: EVQLVQSGAEVKKPGASVKVSCKASGYRFTNYWIHWVRQAPGQGLEWIGGINPGNNYATYRRKFQGRVTMTADTSTSTVYMELSSLRSEDTAVYYCTREGYGNYGAWFAYWGQGTLVTVSS VL: DVQVTQSPSSLSASVGDRVTITCRSSQSLANSYGNTFLSWYLHKPGKAPQLLIYGISNRFSGVPDRFSGSGSGTDFTLTISSLQPEDFATYYCLQGTHQPYTFGQGTKVEIKR","growth inhibition IC50, Daudi #1",[9],2.29 µg/mL of antibody
same,"growth inhibition IC50, RL #1",[9],0.86 µg/mL of antibody
same,"growth inhibition IC50, RL #2",[9],1.14 µg/mL of antibody
same,"growth inhibition IC50, Raji #2",[9],14.9 µg/mL of antibody
same,"growth inhibition IC50, Ramos #1",[9],3.71 µg/mL of antibody
same,"growth inhibition IC50, Daudi #1",[10],80 pM of calicheamicin
same,"growth inhibition IC50, RL #1",[10],30 pM of calicheamicin
same,"growth inhibition IC50, RL #2",[10],40 pM of calicheamicin
same,"growth inhibition IC50, Raji #2",[10],520 pM of calicheamicin
same,"growth inhibition IC50, Ramos #1",[10],130 pM of calicheamicin
"humanized anti-CD22 antibody G5/44 (antibody, human IgG4 S228P, kappa, V domains shown, also called Humanized G5/44; gL1gH7) VH: EVQLVQSGAEVKKPGASVKVSCKASGYRFTNYWIHWVRQAPGQGLEWIGGINPGNNYATYRRKFQGRVTMTADTSTSTVYMELSSLRSEDTAVYYCTREGYGNYGAWFAYWGQGTLVTVSS VL: DVQVTQSPSSLSASVGDRVTITCRSSQSLANSYGNTFLSWYLHKPGKAPQLLIYGISNRFSGVPDRFSGSGSGTDFTLTISSLQPEDFATYYCLQGTHQPYTFGQGTKVEIKR",binding result,[5],no binding
same,Ka,CD22mFc [8],7.9e+09 M⁻¹
same,Kd,CD22mFc [8],0.13 nM
same,koff,CD22mFc [8],2.8e-05 s⁻¹
same,kon,CD22mFc [8],220000 M⁻¹ s⁻¹
same,Kd,CD22mFc [7],0.235 nM
"CMC-544 (21 µg/mg) (CMA-676 procedure) (antibody, human IgG4 S228P, kappa, V domains shown, NAc-gamma calicheamicin DMH AcBut conjugated, loading 21 µg/mg; chain and residues not stated) VH: EVQLVQSGAEVKKPGASVKVSCKASGYRFTNYWIHWVRQAPGQGLEWIGGINPGNNYATYRRKFQGRVTMTADTSTSTVYMELSSLRSEDTAVYYCTREGYGNYGAWFAYWGQGTLVTVSS VL: DVQVTQSPSSLSASVGDRVTITCRSSQSLANSYGNTFLSWYLHKPGKAPQLLIYGISNRFSGVPDRFSGSGSGTDFTLTISSLQPEDFATYYCLQGTHQPYTFGQGTKVEIKR",Ka,CD22mFc [8],8.1e+09 M⁻¹
same,Kd,CD22mFc [8],0.12 nM
same,koff,CD22mFc [8],6.1e-05 s⁻¹
same,kon,CD22mFc [8],490000 M⁻¹ s⁻¹
"CMC-544, CMC-544 process, loading 65 µg/mg (antibody, human IgG4 S228P, kappa, V domains shown, NAc-gamma calicheamicin DMH AcBut conjugated, loading 65 µg/mg; chain and residues not stated) VH: EVQLVQSGAEVKKPGASVKVSCKASGYRFTNYWIHWVRQAPGQGLEWIGGINPGNNYATYRRKFQGRVTMTADTSTSTVYMELSSLRSEDTAVYYCTREGYGNYGAWFAYWGQGTLVTVSS VL: DVQVTQSPSSLSASVGDRVTITCRSSQSLANSYGNTFLSWYLHKPGKAPQLLIYGISNRFSGVPDRFSGSGSGTDFTLTISSLQPEDFATYYCLQGTHQPYTFGQGTKVEIKR","growth inhibition IC50, Daudi #1",[9],0.32 µg/mL of antibody
same,"growth inhibition IC50, RL #1",[9],0.09 µg/mL of antibody
same,"growth inhibition IC50, RL #2",[9],0.18 µg/mL of antibody
same,"growth inhibition IC50, Raji #1",[9],7.69 µg/mL of antibody
same,"growth inhibition IC50, Raji #2",[9],8.62 µg/mL of antibody
same,"growth inhibition IC50, Ramos #1",[9],3.08 µg/mL of antibody
same,"growth inhibition IC50, Ramos #2",[9],4 µg/mL of antibody
same,"growth inhibition IC50, Daudi #1",[10],21 pM of calicheamicin
same,"growth inhibition IC50, RL #1",[10],6 pM of calicheamicin
same,"growth inhibition IC50, RL #2",[10],12 pM of calicheamicin
same,"growth inhibition IC50, Raji #1",[10],500 pM of calicheamicin
same,"growth inhibition IC50, Raji #2",[10],560 pM of calicheamicin
same,"growth inhibition IC50, Ramos #1",[10],200 pM of calicheamicin
same,"growth inhibition IC50, Ramos #2",[10],260 pM of calicheamicin
